Sequences and labels used below:
B1: TPP-971: PDA2-6GS-HSA2-6GS-172E1-13-His (bispecific antibody)
chain: EVQLVESGGGVVRPGGSLRLSCAASGFTFDDYAMSWVRQAPGKGLEWVSGITWNAGSTGYADSVKGRFTISRDNAKNSLYLQMNSLRAEDTALYYCVRDKYSYAWSYDDFDIWGQGTMVTVSSGGGGSGGGGSGGGGSGGGGSGGGGSGGGGSEVQLVESGGGLVKPGGSLRLSCAASGFTFSNYNMNWVRQAPGKGLEWVSSISSAGTHIYYADSVKGRFTISRDNAKNSLYLQMNSLRAEDTAVYYCARDPHSTGWYKDFDYWGQGTLVTVSSGGGGSGGGGSGGGGSGGGGSGGGGSGGGGSEVQLVESGGGVVQPGGSLRLSCAASGFTFSNYGMHWVRQAPGKGLEWVAVISNDGNTKTYADSVKGRFTISRDNSKNTLYLQMNSLRAEDTAVYYCAQDETTTVTASYYFDYWGQGTLVTVSSAAAHHHHHH
B2: TPP-958: PD138G7(G109D)-6GS-172E1-13-6GS-HSA3-His (bispecific antibody)
chain: EVQLVESGGGVVRPGGSLRLSCAASGFTFDDYAMSWVRQAPGKGLEWVSGITWNGGSTGYADSVKDRFTISRDNAKNSLYLQMNSLRAEDTALYYCVRDKYSYAWSYDDFDIWGQGTMVTVSSGGGGSGGGGSGGGGSGGGGSGGGGSGGGGSEVQLVESGGGVVQPGGSLRLSCAASGFTFSNYGMHWVRQAPGKGLEWVAVISNDGNTKTYADSVKGRFTISRDNSKNTLYLQMNSLRAEDTAVYYCAQDETTTVTASYYFDYWGQGTLVTVSSGGGGSGGGGSGGGGSGGGGSGGGGSGGGGSEVQLLESGGGLVKPGGSLRLSCAASGFTVSSYTMNWVRQAPGKGLEWVSSISSSGRYIYYADSVKGRFTISRDNAKNSLYLQMNSLRAEDTAVYYCARDPRMVGNPHEFDIWGQGTMVTVSSAAAHHHHHH
B3: TPP-957; PD138G7(G109D)-6GS-172E1-13-6GS-HSA2-His (bispecific antibody)
chain: EVQLVESGGGVVRPGGSLRLSCAASGFTFDDYAMSWVRQAPGKGLEWVSGITWNGGSTGYADSVKDRFTISRDNAKNSLYLQMNSLRAEDTALYYCVRDKYSYAWSYDDFDIWGQGTMVTVSSGGGGSGGGGSGGGGSGGGGSGGGGSGGGGSEVQLVESGGGVVQPGGSLRLSCAASGFTFSNYGMHWVRQAPGKGLEWVAVISNDGNTKTYADSVKGRFTISRDNSKNTLYLQMNSLRAEDTAVYYCAQDETTTVTASYYFDYWGQGTLVTVSSGGGGSGGGGSGGGGSGGGGSGGGGSGGGGSEVQLVESGGGLVKPGGSLRLSCAASGFTFSNYNMNWVRQAPGKGLEWVSSISSAGTHIYYADSVKGRFTISRDNAKNSLYLQMNSLRAEDTAVYYCARDPHSTGWYKDFDYWGQGTLVTVSSAAAHHHHHH
B4: TPP-1012 PD138G7(G109D)-6GS-HSA1-6GS-CD137D-His (bispecific antibody)
chain: EVQLVESGGGVVRPGGSLRLSCAASGFTFDDYAMSWVRQAPGKGLEWVSGITWNGGSTGYADSVKDRFTISRDNAKNSLYLQMNSLRAEDTALYYCVRDKYSYAWSYDDFDIWGQGTMVTVSSGGGGSGGGGSGGGGSGGGGSGGGGSGGGGSEVQLVESGGGLVQPGRSLRLSCAASGFTFHHYAMHWVRQAPGKGLEWVSGISWNGNKITYADSVKGRFTISRDNAKNSLYLQMNSLRAEDTALYYCVRDSSLFIVGAPTFEHWGRGTLVTVSSGGGGSGGGGSGGGGSGGGGSGGGGSGGGGSEVQLVESGGGVVQPGGSLRLSCAASGFTFSNYGMHWVRQAPGKGLEWVAVISNDGNTKTYADSVKGRFTISRDNSKNTLYLQMNSLRAEDTAVYYCAQDETTTVTASYYFDYWGQGTLVTVSSAAAHHHHHH
B5: TPP-975: CD137D-6GS-PDA2-6GS-HSA2-His (bispecific antibody)
chain: EVQLVESGGGVVQPGGSLRLSCAASGFTFSNYGMHWVRQAPGKGLEWVAVISNDGNTKTYADSVKGRFTISRDNSKNTLYLQMNSLRAEDTAVYYCAQDETTTVTASYYFDYWGQGTLVTVSSGGGGSGGGGSGGGGSGGGGSGGGGSGGGGSEVQLVESGGGVVRPGGSLRLSCAASGFTFDDYAMSWVRQAPGKGLEWVSGITWNAGSTGYADSVKGRFTISRDNAKNSLYLQMNSLRAEDTALYYCVRDKYSYAWSYDDFDIWGQGTMVTVSSGGGGSGGGGSGGGGSGGGGSGGGGSGGGGSEVQLVESGGGLVKPGGSLRLSCAASGFTFSNYNMNWVRQAPGKGLEWVSSISSAGTHIYYADSVKGRFTISRDNAKNSLYLQMNSLRAEDTAVYYCARDPHSTGWYKDFDYWGQGTLVTVSSAAAHHHHHH
B6: TPP-984: CD137D-6GS-HSA2-6GS-PDA-His (bispecific antibody)
chain: EVQLVESGGGVVQPGGSLRLSCAASGFTFSNYGMHWVRQAPGKGLEWVAVISNDGNTKTYADSVKGRFTISRDNSKNTLYLQMNSLRAEDTAVYYCAQDETTTVTASYYFDYWGQGTLVTVSSGGGGSGGGGSGGGGSGGGGSGGGGSGGGGSEVQLVESGGGLVKPGGSLRLSCAASGFTFSNYNMNWVRQAPGKGLEWVSSISSAGTHIYYADSVKGRFTISRDNAKNSLYLQMNSLRAEDTAVYYCARDPHSTGWYKDFDYWGQGTLVTVSSGGGGSGGGGSGGGGSGGGGSGGGGSGGGGSEVQLVESGGGLVQPGRSLRLSCAASGFTFDDYALHWVRQAPGKDLEWVSGISWNGGSYGYADSVKGRFTISRDNAKNSLYLQMNSLRAEDTALYYCVREKGPGLTGSTADYYGLDAWGQGTMVTVSSAAAHHHHHH
B7: TPP-983: CD137A-6GS-HSA2-6GS-PDA2-His (bispecific antibody)
chain: EVQLVESGGGLVQPGGSLRLSCAASGFTLSNYWMNWVRQAPGKGLEWVANINQDGSERYYVDSVKGRFTISRDNAKNSLYLQMNSLRAEDTAVYYCARGGEGYGVDHYGLDVSGQGTTVTVSSGGGGSGGGGSGGGGSGGGGSGGGGSGGGGSEVQLVESGGGLVKPGGSLRLSCAASGFTFSNYNMNWVRQAPGKGLEWVSSISSAGTHIYYADSVKGRFTISRDNAKNSLYLQMNSLRAEDTAVYYCARDPHSTGWYKDFDYWGQGTLVTVSSGGGGSGGGGSGGGGSGGGGSGGGGSGGGGSEVQLVESGGGVVRPGGSLRLSCAASGFTFDDYAMSWVRQAPGKGLEWVSGITWNAGSTGYADSVKGRFTISRDNAKNSLYLQMNSLRAEDTALYYCVRDKYSYAWSYDDFDIWGQGTMVTVSSAAAHHHHHH
B8: TPP-1008: PDA-6GS-HSA3-6GS-CD137D-His (bispecific antibody)
chain: EVQLVESGGGLVQPGRSLRLSCAASGFTFDDYALHWVRQAPGKDLEWVSGISWNGGSYGYADSVKGRFTISRDNAKNSLYLQMNSLRAEDTALYYCVREKGPGLTGSTADYYGLDAWGQGTMVTVSSGGGGSGGGGSGGGGSGGGGSGGGGSGGGGSEVQLLESGGGLVKPGGSLRLSCAASGFTVSSYTMNWVRQAPGKGLEWVSSISSSGRYIYYADSVKGRFTISRDNAKNSLYLQMNSLRAEDTAVYYCARDPRMVGNPHEFDIWGQGTMVTVSSGGGGSGGGGSGGGGSGGGGSGGGGSGGGGSEVQLVESGGGVVQPGGSLRLSCAASGFTFSNYGMHWVRQAPGKGLEWVAVISNDGNTKTYADSVKGRFTISRDNSKNTLYLQMNSLRAEDTAVYYCAQDETTTVTASYYFDYWGQGTLVTVSSAAAHHHHHH
B9: TPP-1009: PDA-6GS-hsa1-6GS-CD137D-His (bispecific antibody)
chain: EVQLVESGGGLVQPGRSLRLSCAASGFTFDDYALHWVRQAPGKDLEWVSGISWNGGSYGYADSVKGRFTISRDNAKNSLYLQMNSLRAEDTALYYCVREKGPGLTGSTADYYGLDAWGQGTMVTVSSGGGGSGGGGSGGGGSGGGGSGGGGSGGGGSEVQLVESGGGLVQPGRSLRLSCAASGFTFHHYAMHWVRQAPGKGLEWVSGISWNGNKITYADSVKGRFTISRDNAKNSLYLQMNSLRAEDTALYYCVRDSSLFIVGAPTFEHWGRGTLVTVSSGGGGSGGGGSGGGGSGGGGSGGGGSGGGGSEVQLVESGGGVVQPGGSLRLSCAASGFTFSNYGMHWVRQAPGKGLEWVAVISNDGNTKTYADSVKGRFTISRDNSKNTLYLQMNSLRAEDTAVYYCAQDETTTVTASYYFDYWGQGTLVTVSSAAAHHHHHH
B10: TPP-985: CD137D-6GS-HSA2-2-6GS-PDA2-His (bispecific antibody)
chain: EVQLVESGGGVVQPGGSLRLSCAASGFTFSNYGMHWVRQAPGKGLEWVAVISNDGNTKTYADSVKGRFTISRDNSKNTLYLQMNSLRAEDTAVYYCAQDETTTVTASYYFDYWGQGTLVTVSSGGGGSGGGGSGGGGSGGGGSGGGGSGGGGSEVQLVESGGGLVKPGGSLRLSCAASGFTFSNYNMNWVRQAPGKGLEWVSSISSAGTHIYYADSVKGRFTISRDNAKNSLYLQMNSLRAEDTAVYYCARDPHSTGWYKDFDYWGQGTLVTVSSGGGGSGGGGSGGGGSGGGGSGGGGSGGGGSEVQLVESGGGVVRPGGSLRLSCAASGFTFDDYAMSWVRQAPGKGLEWVSGITWNAGSTGYADSVKGRFTISRDNAKNSLYLQMNSLRAEDTALYYCVRDKYSYAWSYDDFDIWGQGTMVTVSSAAAHHHHHH
B11: TPP-1011: PD138G7(G109D)-6GS-HSA3-6GS-CD137D-His (bispecific antibody)
chain: EVQLVESGGGVVRPGGSLRLSCAASGFTFDDYAMSWVRQAPGKGLEWVSGITWNGGSTGYADSVKDRFTISRDNAKNSLYLQMNSLRAEDTALYYCVRDKYSYAWSYDDFDIWGQGTMVTVSSGGGGSGGGGSGGGGSGGGGSGGGGSGGGGSEVQLLESGGGLVKPGGSLRLSCAASGFTVSSYTMNWVRQAPGKGLEWVSSISSSGRYIYYADSVKGRFTISRDNAKNSLYLQMNSLRAEDTAVYYCARDPRMVGNPHEFDIWGQGTMVTVSSGGGGSGGGGSGGGGSGGGGSGGGGSGGGGSEVQLVESGGGVVQPGGSLRLSCAASGFTFSNYGMHWVRQAPGKGLEWVAVISNDGNTKTYADSVKGRFTISRDNSKNTLYLQMNSLRAEDTAVYYCAQDETTTVTASYYFDYWGQGTLVTVSSAAAHHHHHH
B12: TPP-982: CD137A-6GS-HSA2-6GS-PDA-His (bispecific antibody)
chain: EVQLVESGGGLVQPGGSLRLSCAASGFTLSNYWMNWVRQAPGKGLEWVANINQDGSERYYVDSVKGRFTISRDNAKNSLYLQMNSLRAEDTAVYYCARGGEGYGVDHYGLDVSGQGTTVTVSSGGGGSGGGGSGGGGSGGGGSGGGGSGGGGSEVQLVESGGGLVKPGGSLRLSCAASGFTFSNYNMNWVRQAPGKGLEWVSSISSAGTHIYYADSVKGRFTISRDNAKNSLYLQMNSLRAEDTAVYYCARDPHSTGWYKDFDYWGQGTLVTVSSGGGGSGGGGSGGGGSGGGGSGGGGSGGGGSEVQLVESGGGLVQPGRSLRLSCAASGFTFDDYALHWVRQAPGKDLEWVSGISWNGGSYGYADSVKGRFTISRDNAKNSLYLQMNSLRAEDTALYYCVREKGPGLTGSTADYYGLDAWGQGTMVTVSSAAAHHHHHH

The target of the experiment is human CD137 expressed on cells (Jurkat human CD137 NF-kB luciferase reporter cells; human CD8+ T cells) (human, UniProt Q07011 24-255). The experiment can be described thus: cell-based or functional assay.
With B1, the “Jurkat-CD137/CHO-PD-1 Reporter Assay EC50” value amounted to 7.18 nM.

For the molecule B2, the “Jurkat-CD137/CHO-PD-1 Reporter Assay EC50” value is 10.9 nM.

For B3, the “Jurkat-CD137/CHO-PD-1 Reporter Assay EC50” value was found to be 11 nM.

B4: the “Jurkat-CD137/CHO-PD-1 Reporter Assay EC50” value worked out at 5.29 nM.

As for B5, the “Jurkat-CD137/CHO-PD-1 Reporter Assay EC50” value is 11.5 nM.

With B6, the “Jurkat-CD137/CHO-PD-1 Reporter Assay EC50” value is 11.8 nM.

For B7, the “Jurkat-CD137/CHO-PD-1 Reporter Assay EC50” value was 0.556 nM.

Regarding B8, the “Jurkat-CD137/CHO-PD-1 Reporter Assay EC50” value was 3.61 nM.

Consider B9, for which the “Jurkat-CD137/CHO-PD-1 Reporter Assay EC50” value was determined as 34.7 nM.

On to B10, for which the “Jurkat-CD137/CHO-PD-1 Reporter Assay EC50” value amounted to 21.7 nM.

With B11, the “Jurkat-CD137/CHO-PD-1 Reporter Assay EC50” value came out at 4.11 nM.

As for B12, the “Jurkat-CD137/CHO-PD-1 Reporter Assay EC50” value was 0.57 nM.

These data come from patent US20220220215A1 (CRESCENDO BIOLOGICS, published 2022).
